Kd, koff and kon data for 1 molecule are collected here from US20260034234A1 (AGENSYS, published 2026).

Assay [1] deals with T1, Cynomolgus 191P4D12 (on PC3 cells) (cynomolgus monkey, UniProt A0A2K5WES1 32-510).
T1 construct: also called PC3-Cynomolgus-191P4D12; Cyno ortholog
T1 sequence: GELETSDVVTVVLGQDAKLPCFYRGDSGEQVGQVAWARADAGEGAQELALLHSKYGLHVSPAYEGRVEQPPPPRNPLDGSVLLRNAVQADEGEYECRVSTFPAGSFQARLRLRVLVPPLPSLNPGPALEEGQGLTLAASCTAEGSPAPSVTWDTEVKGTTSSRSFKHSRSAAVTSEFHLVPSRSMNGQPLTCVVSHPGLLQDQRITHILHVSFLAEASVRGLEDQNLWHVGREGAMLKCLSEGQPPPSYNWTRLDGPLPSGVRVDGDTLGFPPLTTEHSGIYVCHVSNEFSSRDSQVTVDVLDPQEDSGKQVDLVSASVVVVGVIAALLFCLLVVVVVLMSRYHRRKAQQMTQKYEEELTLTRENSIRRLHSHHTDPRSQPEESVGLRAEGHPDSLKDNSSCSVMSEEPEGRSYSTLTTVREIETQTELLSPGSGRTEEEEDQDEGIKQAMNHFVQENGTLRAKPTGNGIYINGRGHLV
In words: FACS saturation binding on PC3-Cynomolgus-191P4D12 cells. Here is the method:
(§1) Ha22-2(2,4)6.1vcMMAE was tested for its binding affinity to 191P4D12 expressed on the surface of PC3-human-191P4D12, PC3-Cynomolgus-191P4D12, and PC3-rat-191P4D12 cells respectively. Briefly, eleven (11) dilutions of Ha22-2(2,4)6.1vcMMAE were incubated with each of the cell types (50,000 cells per well) overnight at 4° C. at a final concentration of 160 nM to 0.011 nM. At the end of the incubation, cells are washed and incubated with anti-hIgG-PE detection antibody for 45 min at 4° C. After washing the unbound detection antibodies, the cells are analyzed by FACS. MFI values were entered into Graphpad Prisim software and analyzed using the one site binding (hyperbola) equation of Y=Bmax*X/(Kd+X) to generate Ha22-2(2,4)6.1vcMMAE saturation curves shown also in FIGS. 6-8 respectively. Bmax is the MFI value at maximal binding of Ha22-2(2,4)6.1vcMMAE to 191P4D12; Kd is the Ha22-2(2,4)6.1vcMMAE binding affinity which is the concentration of Ha22-2(2,4)6.1vcMMAE required to reach half-maximal binding.

Assay [2] has as its target T2, 191P4D12 (human, wild type, on cells) (human, UniProt Q96NY8 32-510).
T2 construct: 510 amino acid ORF expressed on PC3, RAT/Rat1(E) cells and present in cancer cell lines and tumor specimens; also called human 191P4D12; wild-type 191P4D12
T2 sequence: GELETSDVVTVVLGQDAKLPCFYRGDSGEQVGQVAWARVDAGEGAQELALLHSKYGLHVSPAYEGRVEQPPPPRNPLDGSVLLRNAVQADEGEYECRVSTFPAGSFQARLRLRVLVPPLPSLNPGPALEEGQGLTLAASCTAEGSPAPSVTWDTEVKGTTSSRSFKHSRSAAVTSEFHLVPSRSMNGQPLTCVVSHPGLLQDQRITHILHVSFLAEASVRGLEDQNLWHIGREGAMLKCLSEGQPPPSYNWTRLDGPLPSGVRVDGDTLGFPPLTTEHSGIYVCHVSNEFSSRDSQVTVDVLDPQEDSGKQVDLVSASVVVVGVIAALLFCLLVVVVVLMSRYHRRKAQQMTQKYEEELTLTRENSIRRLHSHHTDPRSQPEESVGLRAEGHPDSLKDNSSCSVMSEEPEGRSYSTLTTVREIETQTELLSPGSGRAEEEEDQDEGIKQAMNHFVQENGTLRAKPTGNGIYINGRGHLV
In words: FACS saturation binding on PC3-human-191P4D12 cells. On the procedure:
as §1

Assay [3] addresses T3, purified recombinant 191P4D12 (ECD amino acids 1-348) (human, UniProt Q96NY8 32-348).
T3 construct: Range as printed
T3 sequence: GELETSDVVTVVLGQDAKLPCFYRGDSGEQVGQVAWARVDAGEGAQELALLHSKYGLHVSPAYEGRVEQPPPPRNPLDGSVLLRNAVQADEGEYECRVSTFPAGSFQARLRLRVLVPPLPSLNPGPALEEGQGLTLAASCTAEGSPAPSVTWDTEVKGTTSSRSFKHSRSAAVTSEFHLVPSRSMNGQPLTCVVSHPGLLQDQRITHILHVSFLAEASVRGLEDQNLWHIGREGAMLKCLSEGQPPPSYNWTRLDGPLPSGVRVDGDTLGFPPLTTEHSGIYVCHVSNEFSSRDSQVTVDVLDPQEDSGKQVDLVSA
In words: SPR (Biacore), ADC captured by anti-human Fc, 191P4D12 ECD as analyte. Here is the method:
The affinity of Ha22-2(2,4)6.1 MAb and Ha22-2(2,4)6.1vcMMAE to purified recombinant 191P4D12 (ECD amino acids 1-348) was performed by Surface Plasmon Resonance (SPR) (BIAcore). Briefly, goat-anti-human Fcγ polyclonal Abs (Jackson Immuno Research Labs, Inc.) were covalently immobilized on the surface of a CM5 sensor chip (Biacore). Purified Ha22-2(2,4)6.1 MAb or Ha22-2(2,4)6.1vcMMAE were then captured on the surface of said chip. On average, approximately 300 RUs of test Ha22-2(2,4)6.1 MAb or Ha22-2(2,4)6.1vcMMAE was captured in every cycle. Subsequently, a series of five (5) to six (6) dilutions of recombinant 191P4D12 (ECD amino acids 1-348) ranging from 1 nM to 100 nM was injected over such surface to generate binding curves (sensograms) that were processed and globally fit to a 1:1 interaction model using BIAevaluation 3.2 and CLAMP software (Myszka and Morton, 1998) (FIG. 22). Table V summarizes association and dissociation rate constants as well as affinities of Ha22-2(2,4)6.1 MAb and Ha22-2(2,4)6.1 vcMMAE to recombinant 191P4D12 (ECD amino acids 1-348).
A general note: Surface plasmon resonance follows binding to a sensor surface in real time, without labels.

For assay [4], the target named is T4, Rat 191P4D12 (on PC3 cells) (rat, UniProt D3ZET1 31-509).
T4 construct: whole, on cells; also called PC3-rat-191P4D12; Rat ortholog
T4 sequence: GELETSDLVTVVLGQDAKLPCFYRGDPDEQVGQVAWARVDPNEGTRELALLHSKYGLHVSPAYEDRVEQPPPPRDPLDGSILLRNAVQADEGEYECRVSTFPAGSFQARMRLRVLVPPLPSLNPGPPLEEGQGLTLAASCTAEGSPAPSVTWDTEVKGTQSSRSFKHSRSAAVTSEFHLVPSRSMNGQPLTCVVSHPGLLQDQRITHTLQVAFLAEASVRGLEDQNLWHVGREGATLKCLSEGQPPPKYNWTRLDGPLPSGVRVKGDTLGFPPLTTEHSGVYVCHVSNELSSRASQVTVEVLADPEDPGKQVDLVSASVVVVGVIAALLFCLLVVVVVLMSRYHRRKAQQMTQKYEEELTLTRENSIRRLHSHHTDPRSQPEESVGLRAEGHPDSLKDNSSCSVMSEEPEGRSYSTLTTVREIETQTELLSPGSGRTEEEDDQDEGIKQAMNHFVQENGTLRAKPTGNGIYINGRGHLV
In words: FACS saturation binding on PC3-rat-191P4D12 cells. On the procedure:
as §1

B1: Ha22-2(2,4)6.1vcMMAE (antibody, human IgG1, kappa, V domains shown)
VH: EVQLVESGGGLVQPGGSLRLSCAASGFTFSSYNMNWVRQAPGKGLEWVSYISSSSSTIYYADSVKGRFTISRDNAKNSLSLQMNSLRDEDTAVYYCARAYYYGMDVWGQGTTVTVSS
VL: DIQMTQSPSSVSASVGDRVTITCRASQGISGWLAWYQQKPGKAPKFLIYAASTLQSGVPSRFSGSGSGTDFTLTISSLQPEDFATYYCQQANSFPPTFGGGTKVEIKR
modifications: vcMMAE (Val-Cit linker, MMAE) on cysteine thiols after partial TCEP reduction, positions not given; p about 3.8 drugs per antibody
notes: also called Ha22-2(2,4)6.1ADC
As to B1, the Kd in assay [1] amounted to 0.34 nM; in assay [2], 0.69 nM; in assay [3], 11 nM; in assay [4], 1.6 nM. Moreover, the koff in assay [3] worked out at 0.0052 s⁻¹. In assay [3], the kon was 450000 M⁻¹ s⁻¹.

Broadly, the Kd is the free concentration of one partner at which half of the binding sites on the other are occupied at equilibrium, for simple one-to-one binding. In general, koff refers to a measure of how fast the partners let go of each other. As usually defined, the kon is a measure of how fast the partners come together.
